Patent US12679878B2, “CRF2 receptor agonists and their use in therapy” (SANOFI, priority 2020, dated 2026)
Starred links: 1 amine or outer side, 2 acyl side, 3 side chain; linkers in the order of their positions; H or OH if unused. Non-standard residues stand in square brackets, D forms with d. Groups on a side chain read outwards from the residue. No end group written: not given here. *: point of attachment. C20 diacid = O=C(O)CCCCCCCCCCCCCCCCCCC(=O)*; C18 diacid = O=C(O)CCCCCCCCCCCCCCCCC(=O)*; γGlu = O=C(O)[C@H](CCC(=O)[*:2])N[*:1]; AEEA = NCCOCCOCC(=O)O; Aib = CC(C)(N)C(=O)O

T1: anti-target CRF1R receptor (UniProt P34998 24-415, limits assumed)
T1 sequence (looked up): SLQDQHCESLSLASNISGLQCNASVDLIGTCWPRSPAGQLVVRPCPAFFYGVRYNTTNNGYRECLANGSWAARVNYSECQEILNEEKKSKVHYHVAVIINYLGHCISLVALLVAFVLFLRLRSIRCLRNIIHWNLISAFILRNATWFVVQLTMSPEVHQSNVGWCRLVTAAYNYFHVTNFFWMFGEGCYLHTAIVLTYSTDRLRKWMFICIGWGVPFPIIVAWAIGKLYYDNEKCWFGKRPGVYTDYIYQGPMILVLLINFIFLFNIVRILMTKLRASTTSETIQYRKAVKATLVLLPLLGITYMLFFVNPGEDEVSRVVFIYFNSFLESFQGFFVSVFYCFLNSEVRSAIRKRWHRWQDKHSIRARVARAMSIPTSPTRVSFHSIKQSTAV

T2: endogenous human CRF2 (NCI-H82 cells) (human, UniProt Q13324 20-411)
T2 sequence (looked up): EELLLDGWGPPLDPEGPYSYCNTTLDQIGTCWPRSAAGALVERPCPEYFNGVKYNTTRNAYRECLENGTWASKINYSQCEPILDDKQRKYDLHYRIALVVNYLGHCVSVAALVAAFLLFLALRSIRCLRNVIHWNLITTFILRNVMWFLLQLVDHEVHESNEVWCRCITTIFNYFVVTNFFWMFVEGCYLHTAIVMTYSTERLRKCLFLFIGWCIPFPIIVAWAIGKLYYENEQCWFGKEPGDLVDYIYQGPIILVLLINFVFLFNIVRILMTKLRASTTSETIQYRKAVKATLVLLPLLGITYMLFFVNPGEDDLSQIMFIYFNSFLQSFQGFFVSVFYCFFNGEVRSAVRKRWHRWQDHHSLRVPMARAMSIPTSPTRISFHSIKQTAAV


What was measured:
Assay in all cases: cell-based or functional assay
rat CRF2R α receptor = rat CRF2R α receptor (rat, UniProt P47866 20-411)
[1] = biological target: T1, anti-target CRF1R receptor
[2] = biological target: T2, endogenous human CRF2 (NCI-H82 cells)

Binder | EC50 [nM], 0% HSA (cAMP, A7R5 cells) (rat CRF2R α receptor) [nM] | EC50[nM] 0% HSA (cAMP, CRF1R-overexpression CHO cells) [1] [nM] | Emax (%) (cAMP, CRF1R-overexpression CHO cells) [1] | EC50 [nM] (cAMP, NCI-H82 cells) [2]
IVLSLD[dV]PIKLK([AEEA-AEEA-γGlu-C18 diacid])QILLKQERQK[Aib]QREQAEKNKQILAQV-NH2 (N-terminus assumed; SMILES CC[C@H](C)[C@H](N)C(=O)N[C@H](C(=O)N[C@@H](CC(C)C)C(=O)N[C@@H](CO)C(=O)N[C@@H](CC(C)C)C(=O)N[C@@H](CC(=O)O)C(=O)N[C@@H](C(=O)N1CCC[C@H]1C(=O)N[C@H](C(=O)N[C@@H](CCCCN)C(=O)N[C@@H](CC(C)C)C(=O)N[C@@H](CCCCNC(=O)COCCOCCNC(=O)COCCOCCNC(=O)CC[C@H](NC(=O)CCCCCCCCCCCCCCCCC(=O)O)C(=O)O)C(=O)N[C@@H](CCC(N)=O)C(=O)N[C@H](C(=O)N[C@@H](CC(C)C)C(=O)N[C@@H](CC(C)C)C(=O)N[C@@H](CCCCN)C(=O)N[C@@H](CCC(N)=O)C(=O)N[C@@H](CCC(=O)O)C(=O)N[C@@H](CCCNC(=N)N)C(=O)N[C@@H](CCC(N)=O)C(=O)N[C@@H](CCCCN)C(=O)NC(C)(C)C(=O)N[C@@H](CCC(N)=O)C(=O)N[C@@H](CCCNC(=N)N)C(=O)N[C@@H](CCC(=O)O)C(=O)N[C@@H](CCC(N)=O)C(=O)N[C@@H](C)C(=O)N[C@@H](CCC(=O)O)C(=O)N[C@@H](CCCCN)C(=O)N[C@@H](CC(N)=O)C(=O)N[C@@H](CCCCN)C(=O)N[C@@H](CCC(N)=O)C(=O)N[C@H](C(=O)N[C@@H](CC(C)C)C(=O)N[C@@H](C)C(=O)N[C@@H](CCC(N)=O)C(=O)N[C@H](C(N)=O)C(C)C)[C@@H](C)CC)[C@@H](C)CC)[C@@H](C)CC)C(C)C)C(C)C) [peptide of SEQ ID NO: 130] | 0.13 | > 1000 | 20.3 | 4.3
IVLSLDVPIKLK([AEEA-AEEA-γGlu-C18 diacid])KILLKQERQKK[Aib]REQAETNKQILERV-NH2 (N-terminus assumed; SMILES CC[C@H](C)[C@H](N)C(=O)N[C@H](C(=O)N[C@@H](CC(C)C)C(=O)N[C@@H](CO)C(=O)N[C@@H](CC(C)C)C(=O)N[C@@H](CC(=O)O)C(=O)N[C@H](C(=O)N1CCC[C@H]1C(=O)N[C@H](C(=O)N[C@@H](CCCCN)C(=O)N[C@@H](CC(C)C)C(=O)N[C@@H](CCCCNC(=O)COCCOCCNC(=O)COCCOCCNC(=O)CC[C@H](NC(=O)CCCCCCCCCCCCCCCCC(=O)O)C(=O)O)C(=O)N[C@@H](CCCCN)C(=O)N[C@H](C(=O)N[C@@H](CC(C)C)C(=O)N[C@@H](CC(C)C)C(=O)N[C@@H](CCCCN)C(=O)N[C@@H](CCC(N)=O)C(=O)N[C@@H](CCC(=O)O)C(=O)N[C@@H](CCCNC(=N)N)C(=O)N[C@@H](CCC(N)=O)C(=O)N[C@@H](CCCCN)C(=O)N[C@@H](CCCCN)C(=O)NC(C)(C)C(=O)N[C@@H](CCCNC(=N)N)C(=O)N[C@@H](CCC(=O)O)C(=O)N[C@@H](CCC(N)=O)C(=O)N[C@@H](C)C(=O)N[C@@H](CCC(=O)O)C(=O)N[C@H](C(=O)N[C@@H](CC(N)=O)C(=O)N[C@@H](CCCCN)C(=O)N[C@@H](CCC(N)=O)C(=O)N[C@H](C(=O)N[C@@H](CC(C)C)C(=O)N[C@@H](CCC(=O)O)C(=O)N[C@@H](CCCNC(=N)N)C(=O)N[C@H](C(N)=O)C(C)C)[C@@H](C)CC)[C@@H](C)O)[C@@H](C)CC)[C@@H](C)CC)C(C)C)C(C)C) [peptide of SEQ ID NO: 101] | 1.02 | > 1000 | -0.34 | 4.1
IVLSLDVPIKLK([AEEA-AEEA-γGlu-C20 diacid])QILLEQEKQK[Aib]QREQAETNKQILAQV-NH2 (N-terminus assumed; SMILES CC[C@H](C)[C@H](N)C(=O)N[C@H](C(=O)N[C@@H](CC(C)C)C(=O)N[C@@H](CO)C(=O)N[C@@H](CC(C)C)C(=O)N[C@@H](CC(=O)O)C(=O)N[C@H](C(=O)N1CCC[C@H]1C(=O)N[C@H](C(=O)N[C@@H](CCCCN)C(=O)N[C@@H](CC(C)C)C(=O)N[C@@H](CCCCNC(=O)COCCOCCNC(=O)COCCOCCNC(=O)CC[C@H](NC(=O)CCCCCCCCCCCCCCCCCCC(=O)O)C(=O)O)C(=O)N[C@@H](CCC(N)=O)C(=O)N[C@H](C(=O)N[C@@H](CC(C)C)C(=O)N[C@@H](CC(C)C)C(=O)N[C@@H](CCC(=O)O)C(=O)N[C@@H](CCC(N)=O)C(=O)N[C@@H](CCC(=O)O)C(=O)N[C@@H](CCCCN)C(=O)N[C@@H](CCC(N)=O)C(=O)N[C@@H](CCCCN)C(=O)NC(C)(C)C(=O)N[C@@H](CCC(N)=O)C(=O)N[C@@H](CCCNC(=N)N)C(=O)N[C@@H](CCC(=O)O)C(=O)N[C@@H](CCC(N)=O)C(=O)N[C@@H](C)C(=O)N[C@@H](CCC(=O)O)C(=O)N[C@H](C(=O)N[C@@H](CC(N)=O)C(=O)N[C@@H](CCCCN)C(=O)N[C@@H](CCC(N)=O)C(=O)N[C@H](C(=O)N[C@@H](CC(C)C)C(=O)N[C@@H](C)C(=O)N[C@@H](CCC(N)=O)C(=O)N[C@H](C(N)=O)C(C)C)[C@@H](C)CC)[C@@H](C)O)[C@@H](C)CC)[C@@H](C)CC)C(C)C)C(C)C) [peptide of SEQ ID NO: 81] | 0.94 | > 1000 | 23.3 | 110

Results, then the binder that gave them:

EC50 [nM], 0% HSA (cAMP, A7R5 cells) (rat CRF2R α receptor) [nM] | EC50[nM] 0% HSA (cAMP, CRF1R-overexpression CHO cells) [1] [nM] | Emax (%) (cAMP, CRF1R-overexpression CHO cells) [1] | EC50 [nM] (cAMP, NCI-H82 cells) [2] | Binder
0.14 | > 1000 | 22.5 | 120 | IVLSLD[dV]PIKLK([AEEA-AEEA-γGlu-C18 diacid])QILLKQERQKKQREQAEKNKQILEQV-NH2 (N-terminus assumed; SMILES CC[C@H](C)[C@H](N)C(=O)N[C@H](C(=O)N[C@@H](CC(C)C)C(=O)N[C@@H](CO)C(=O)N[C@@H](CC(C)C)C(=O)N[C@@H](CC(=O)O)C(=O)N[C@@H](C(=O)N1CCC[C@H]1C(=O)N[C@H](C(=O)N[C@@H](CCCCN)C(=O)N[C@@H](CC(C)C)C(=O)N[C@@H](CCCCNC(=O)COCCOCCNC(=O)COCCOCCNC(=O)CC[C@H](NC(=O)CCCCCCCCCCCCCCCCC(=O)O)C(=O)O)C(=O)N[C@@H](CCC(N)=O)C(=O)N[C@H](C(=O)N[C@@H](CC(C)C)C(=O)N[C@@H](CC(C)C)C(=O)N[C@@H](CCCCN)C(=O)N[C@@H](CCC(N)=O)C(=O)N[C@@H](CCC(=O)O)C(=O)N[C@@H](CCCNC(=N)N)C(=O)N[C@@H](CCC(N)=O)C(=O)N[C@@H](CCCCN)C(=O)N[C@@H](CCCCN)C(=O)N[C@@H](CCC(N)=O)C(=O)N[C@@H](CCCNC(=N)N)C(=O)N[C@@H](CCC(=O)O)C(=O)N[C@@H](CCC(N)=O)C(=O)N[C@@H](C)C(=O)N[C@@H](CCC(=O)O)C(=O)N[C@@H](CCCCN)C(=O)N[C@@H](CC(N)=O)C(=O)N[C@@H](CCCCN)C(=O)N[C@@H](CCC(N)=O)C(=O)N[C@H](C(=O)N[C@@H](CC(C)C)C(=O)N[C@@H](CCC(=O)O)C(=O)N[C@@H](CCC(N)=O)C(=O)N[C@H](C(N)=O)C(C)C)[C@@H](C)CC)[C@@H](C)CC)[C@@H](C)CC)C(C)C)C(C)C) [peptide of SEQ ID NO: 137]
0.13 | > 1000 | 28.4 | 110 | IVLSLD[dV]PIKLK([AEEA-AEEA-γGlu-C18 diacid])QILLKQERQK[Aib]QRQQAEKNKQILAQV-NH2 (N-terminus assumed; SMILES CC[C@H](C)[C@H](N)C(=O)N[C@H](C(=O)N[C@@H](CC(C)C)C(=O)N[C@@H](CO)C(=O)N[C@@H](CC(C)C)C(=O)N[C@@H](CC(=O)O)C(=O)N[C@@H](C(=O)N1CCC[C@H]1C(=O)N[C@H](C(=O)N[C@@H](CCCCN)C(=O)N[C@@H](CC(C)C)C(=O)N[C@@H](CCCCNC(=O)COCCOCCNC(=O)COCCOCCNC(=O)CC[C@H](NC(=O)CCCCCCCCCCCCCCCCC(=O)O)C(=O)O)C(=O)N[C@@H](CCC(N)=O)C(=O)N[C@H](C(=O)N[C@@H](CC(C)C)C(=O)N[C@@H](CC(C)C)C(=O)N[C@@H](CCCCN)C(=O)N[C@@H](CCC(N)=O)C(=O)N[C@@H](CCC(=O)O)C(=O)N[C@@H](CCCNC(=N)N)C(=O)N[C@@H](CCC(N)=O)C(=O)N[C@@H](CCCCN)C(=O)NC(C)(C)C(=O)N[C@@H](CCC(N)=O)C(=O)N[C@@H](CCCNC(=N)N)C(=O)N[C@@H](CCC(N)=O)C(=O)N[C@@H](CCC(N)=O)C(=O)N[C@@H](C)C(=O)N[C@@H](CCC(=O)O)C(=O)N[C@@H](CCCCN)C(=O)N[C@@H](CC(N)=O)C(=O)N[C@@H](CCCCN)C(=O)N[C@@H](CCC(N)=O)C(=O)N[C@H](C(=O)N[C@@H](CC(C)C)C(=O)N[C@@H](C)C(=O)N[C@@H](CCC(N)=O)C(=O)N[C@H](C(N)=O)C(C)C)[C@@H](C)CC)[C@@H](C)CC)[C@@H](C)CC)C(C)C)C(C)C) [peptide of SEQ ID NO: 135]
